Usually logD stands for the decadic logarithm of the distribution of all forms, ionised or not, between an organic phase and buffer at a given pH. Lower therefore signals a more hydrophilic compound. A word on the tissue uptake: it is the percentage of the injected dose found per gram of tissue. Low values mean little accumulation, high ones strong accumulation.

Series [1] concerns αvβ3 integrin positive M21 and αvβ3 integrin negative M21-L tumor xenografts. Details: species or system BALB/c nude mice. The note with it: mouse, in vivo, iv, 1 h. How it is done:
(§1) For the evaluation of biodistribution, four healthy female BALB/c mice (Charles River Laboratories, Sulzfeld, GER) were intravenously injected with [^89Zr]TAFC (∼1.5 MBq/mouse, ∼4 μg of precursor) into the tail vein and sacrificed at 6 h postinjection (p.i.). For the evaluation of tumor uptake of [^89Zr]FSC(succ-RGD)3 female, athymic BALB/c nude mice (Charles River Laboratories) were used. For the induction of tumor xenografts mice were injected subcutaneously with 5 × 10^6 αvβ3 integrin positive M21 cells into the right hind limb and with 5 × 10^6 αvβ3 integrin negative M21-L cells (negative control) into the left hind limb of the same mouse (n = 4). The tumors were allowed to grow until they had reached a volume of 0.3 to 0.6 cm^3. On the day of the experiment [^89Zr]FSC(succ-RGD)3 (∼0.5 MBq/mouse, ∼0.5 μg of peptide) was intravenously injected in the lateral tail vein. Mice were sacrificed by cervical dislocation at 1, 2, and 4 h after injection. Organs (spleen, pancreas, stomach, intestine, kidney, liver, heart, and lung), blood, muscle tissue, bone, and tumors were dissected and weighted. As a comparison, four tumor-bearing mice were intravenously injected in the tail vein with [^68Ga]FSC(succ-RGD)3 (∼0.5 MBq/mouse, ∼0.5 μg of precursor) and sacrificed at 1 h p.i. Activity of the different samples was measured in the gamma counter. Results were expressed as percentage of injected dose per gram tissue (% ID/g).

For series [2] the following is noted: pH 7.4.
Series [3] has as its system M21 cells (αvβ3 integrin positive). Kind of series: Internalization assay. The class given is cell-based, human. The settings on record: 37 °C, 90 min, total series. The procedure: M21 cells (αvβ3 integrin positive) were diluted with RPMI 1640 (Gibco, Invitrogen Corporation, Paisley, UK) containing 1% glutamine (m/v), 1% bovine serum albumin (BSA) (m/v), CaCl2 (1 mM), MgCl2 (1 mM), and MnCl2 (10 mM) to a concentration of 2.0 × 10^6 cells/mL. Aliquots of 1 mL cell solution were transferred to Eppendorf tubes for incubation at 37 °C for 1 h. After addition of [^89Zr]FSC(RGDfE)3, [^89Zr]FSC(succ-RGD)3, or [^89Zr]FSC(Mal-RGD)3 (approximately 1.5 × 10^6 cpm), the cells were incubated in triplicates with either PBS with 0.5% BSA (150 μL, total series) or with 10 μM c(RGDyV) in PBS/0.5% BSA (150 μL, nonspecific series) at 37 °C for 90 min. After the incubation time the tubes were centrifuged, and incubation was stopped by removal of the medium. Then the cells were washed twice with ice-cold TRIS-buffered saline. Subsequently, the cells were incubated two times in acid wash buffer (20 mM acetate buffer, pH 4.5) at 37 °C for 5 min. Then the tubes were centrifuged, and the supernatant was collected in plastic vials (membrane bound activity). In a last step the cells were lysed by addition of 2 M NaOH, and the radioactivity associated with cells was collected in plastic vials (internalized radioligand fraction). Protein content in the NaOH fraction was determined using a spectrometric method (Bradford assay). The internalized activity was calculated and expressed as percentage of total activity per milligram protein.

Details of series [4]: species or system BALB/c nude mice. The settings on record: mouse, in vivo, iv. How it is done: as §1
The test system of series [5] is αvβ3 integrin positive M21 and αvβ3 integrin negative M21-L tumor xenografts. The class given is in vivo, BALB/c nude mice. The settings on record: ~5 MBq/mouse i.v., monitoring period of 24 h. The procedure:
MicroPET/CT imaging experiments were conducted on an Inveon microPET/CT scanner (Siemens Preclinical Solutions, Knoxville, USA). A group of four M21-tumor xenograft bearing BALB/c nude mice were administered with [^89Zr]FSC(succ-RGD)3 (∼5 MBq/mouse, ∼5 μg of peptide) via intravenous tail vein injection. MicroPET images were acquired under general anesthesia (isoflurane/O2) for 20 min. PET data for each mouse were recorded via static scans at 1, 4, and 24 h p.i. The microPET scans were reconstructed with Inveon Acquisition Workplace software (version 1.5; Siemens Preclinical Solutions), using a 3-dimensional fast maximum a posteriori algorithm with the following parameters: matrix, 256 × 256 × 161; pixel size, 0.4 × 0.4 × 0.8 mm; β-value of 1.5 mm resolution with uniform variance.

A short description of series [6]: Stability assay in 1000-fold molar excess of EDTA solution (ITLC). The class given is physicochemical. The note with it: competitor EDTA 1000-fold excess, 37 °C, n = 3. How it is done: Determination of the stability of [^89Zr]DFO, [^89Zr]TAFC, and [^89Zr]FSC-RGD conjugates was carried out by incubating the radioligands in PBS, 1000-fold molar excess of EDTA solution with different pH (pH 7 and pH 6; radioligand vs EDTA: 25 μM vs 25 mM) as well as in human serum for 7 days at 37 °C, respectively. At selected time points three aliquots of PBS and EDTA solution were analyzed directly via ITLC, while the three serum aliquots were mixed with 500 μL of CH3CN, vortexed, and centrifuged at 20,000 rcf for 2 min prior to analysis.

[7] abbreviates: uptake in αvβ3 integrin positive M21 tumor.

Like-named read-outs stand apart in the source and are kept apart here.

`C/C1=C/C(=O)N(O)CCC[C@H](NC(=O)CCC(=O)NCCCC[C@@H]2NC(=O)[C@@H](Cc3ccccc3)NC(=O)[C@H](CC(=O)O)NC(=O)CNC(=O)[C@H](CCCNC(=N)N)NC2=O)C(=O)OCC/C(C)=C\C(=O)N(O)CCC[C@H](NC(=O)CCC(=O)NCCCC[C@@H]2NC(=O)[C@@H](Cc3ccccc3)NC(=O)[C@H](CC(=O)O)NC(=O)CNC(=O)[C@H](CCCNC(=N)N)NC2=O)C(=O)OCC/C(C)=C\C(=O)N(O)CCC[C@H](NC(=O)CCC(=O)NCCCC[C@@H]2NC(=O)[C@@H](Cc3ccccc3)NC(=O)[C@H](CC(=O)O)NC(=O)CNC(=O)[C@H](CCCNC(=N)N)NC2=O)C(=O)OCC1` [[^68Ga]FSC(succ-RGD)3] [metal not drawn, reference compound]: in series [1], the blood activity was found to be 0.63 ± 0.26 % ID/g, the “uptake in the spleen” value came out at 3.27 ± 0.64 % ID/g and the “uptake in αvβ3 integrin negative M21-L tumors” value is on record as 1.10 ± 0.30 % ID/g.

Take `C/C1=C/C(=O)N(O)CCC[C@H](NC(=O)CCN2C(=O)CC(SCCOCCOCCOCCOCCC(=O)NCCCC[C@@H]3NC(=O)[C@@H](Cc4ccccc4)NC(=O)[C@H](CC(=O)O)NC(=O)CNC(=O)[C@H](CCCNC(=N)N)NC3=O)C2=O)C(=O)OCC/C(C)=C\C(=O)N(O)CCC[C@H](NC(=O)CCN2C(=O)CC(SCCOCCOCCOCCOCCC(=O)NCCCC[C@@H]3NC(=O)[C@@H](Cc4ccccc4)NC(=O)[C@H](CC(=O)O)NC(=O)CNC(=O)[C@H](CCCNC(=N)N)NC3=O)C2=O)C(=O)OCC/C(C)=C\C(=O)N(O)CCC[C@H](NC(=O)CCN2C(=O)CC(SCCOCCOCCOCCOCCC(=O)NCCCC[C@@H]3NC(=O)[C@@H](Cc4ccccc4)NC(=O)[C@H](CC(=O)O)NC(=O)CNC(=O)[C@H](CCCNC(=N)N)NC3=O)C2=O)C(=O)OCC1` (stereo partly shown) [[^89Zr]FSC(Mal-RGD)3, metal not drawn]: the logD in series [2] is -2.9. For the same compound, in series [3], the “internalized activity, % of total activity per milligram protein” value amounted to 1.6 ± 0.1 % cpm/mg.

In the case of `C/C1=C/C(=O)N(O)CCC[C@H](NC(=O)CC[C@@H]2NC(=O)[C@@H](Cc3ccccc3)NC(=O)[C@H](CC(=O)O)NC(=O)CNC(=O)[C@H](CCCNC(=N)N)NC2=O)C(=O)OCC/C(C)=C\C(=O)N(O)CCC[C@H](NC(=O)CC[C@@H]2NC(=O)[C@@H](Cc3ccccc3)NC(=O)[C@H](CC(=O)O)NC(=O)CNC(=O)[C@H](CCCNC(=N)N)NC2=O)C(=O)OCC/C(C)=C\C(=O)N(O)CCC[C@H](NC(=O)CC[C@@H]2NC(=O)[C@@H](Cc3ccccc3)NC(=O)[C@H](CC(=O)O)NC(=O)CNC(=O)[C@H](CCCNC(=N)N)NC2=O)C(=O)OCC1` [[^89Zr]FSC(RGDfE)3, metal not drawn], the logD in series [2] was -3. In series [3], the “internalized activity, % of total activity per milligram protein” value is on record as 2.3 ± 0.3 % cpm/mg.

As for `C/C1=C/C(=O)N(O)CCC[C@H](NC(=O)CCC(=O)NCCCC[C@@H]2NC(=O)[C@@H](Cc3ccccc3)NC(=O)[C@H](CC(=O)O)NC(=O)CNC(=O)[C@H](CCCNC(=N)N)NC2=O)C(=O)OCC/C(C)=C\C(=O)N(O)CCC[C@H](NC(=O)CCC(=O)NCCCC[C@@H]2NC(=O)[C@@H](Cc3ccccc3)NC(=O)[C@H](CC(=O)O)NC(=O)CNC(=O)[C@H](CCCNC(=N)N)NC2=O)C(=O)OCC/C(C)=C\C(=O)N(O)CCC[C@H](NC(=O)CCC(=O)NCCCC[C@@H]2NC(=O)[C@@H](Cc3ccccc3)NC(=O)[C@H](CC(=O)O)NC(=O)CNC(=O)[C@H](CCCNC(=N)N)NC2=O)C(=O)OCC1` [[^89Zr]FSC(succ-RGD)3, metal not drawn], the tissue uptake at 1 h in series [4] (activity in kidneys) was 6.42 ± 0.72 %ID/g; in series [4] (activity in the bone) it was 0.71 ± 0.05 %ID/g; in series [4] (uptake in the spleen), 1.78 ± 0.22 %ID/g; in series [4] (setting [7]) it was 2.83 ± 0.6 %ID/g. Moreover, the tissue uptake at 2 h in series [4] (activity in kidneys) worked out at 5.77 ± 0.2 %ID/g; in series [4] (activity in the bone) it was 0.79 ± 0.28 %ID/g; in series [4] (blood activity), 0.15 %ID/g; in series [4] (setting [7]), 3.48 ± 0.45 %ID/g. For the same compound, the tissue uptake at 4 h in series [4] (activity in kidneys) came out at 5.26 ± 0.9 %ID/g; in series [4] (activity in the bone), 0.73 ± 0.27 %ID/g; in series [4] (blood activity) it was 0.1 ± 0.01 %ID/g; in series [4] (uptake in αvβ3 integrin negative M21-L tumors), 0.5 %ID/g; in series [4] (setting [7]) it was 2.86 ± 0.3 %ID/g. In addition, in series [2], the logD is -2.9.

`C/C1=C/C(=O)N(O)CCC[C@H](NC(=O)CCC(=O)NCCCC[C@@H]2NC(=O)[C@@H](Cc3ccccc3)NC(=O)[C@H](CC(=O)O)NC(=O)CNC(=O)[C@H](CCCNC(=N)N)NC2=O)C(=O)OCC/C(C)=C\C(=O)N(O)CCC[C@H](NC(=O)CCC(=O)NCCCC[C@@H]2NC(=O)[C@@H](Cc3ccccc3)NC(=O)[C@H](CC(=O)O)NC(=O)CNC(=O)[C@H](CCCNC(=N)N)NC2=O)C(=O)OCC/C(C)=C\C(=O)N(O)CCC[C@H](NC(=O)CCC(=O)NCCCC[C@@H]2NC(=O)[C@@H](Cc3ccccc3)NC(=O)[C@H](CC(=O)O)NC(=O)CNC(=O)[C@H](CCCNC(=N)N)NC2=O)C(=O)OCC1` [[^89Zr]FSC(succ-RGD)3] [metal not drawn] registered a blood activity in series [1] of 0.16 ± 0.04 % ID/g. In addition, in series [5], the “uptake in αvβ3 integrin negative M21-L tumors in microPET/CT” value is recorded as “no uptake”. Also, the “visualization of αvβ3 integrin positive M21 tumors in microPET/CT” value in series [5] is “clearly visualized over the whole monitoring period of 24 h”. Moreover, the “internalized activity, % of total activity per milligram protein” value in series [3] is on record as 2.1 ± 0.3 % cpm/mg. Further, the “% intact starting species by incubation time” value in series [6] (pH 7, 1 h) came out at 98.2 ± 0.1%; in series [6] (pH 7, 4 h), 98.2 ± 0.1%; in series [6] (pH 7, 1 d), 96.5 ± 0.5%; in series [6] (pH 7, 3 d), 96.0 ± 0.4%; in series [6] (pH 7, 5 d), 94.5 ± 0.3%; in series [6] (pH 7, 7 d), 93.9 ± 0.7%.

These data come from article PMC4453016, “Novel Bifunctional Cyclic Chelator for ^89Zr Labeling–Radiolabeling and Targeting Properties of RGD Conjugates” (Molecular Pharmaceutics, 2015).
